Two molecules from PMC10198636 (Science Advances, 2023) can be followed below.

The Kd is the equilibrium constant for the complex coming apart.

The assay concerns the target Cul3(N), recombinant N-terminal domain of human Cul3 (human, UniProt Q13618 1-417). Briefly: ITC. (Isothermal titration calorimetry measures the heat released or taken up as one component is titrated into another.)

Cul3(N), recombinant N-terminal domain of human Cul3, sequence (Q13618 1-417): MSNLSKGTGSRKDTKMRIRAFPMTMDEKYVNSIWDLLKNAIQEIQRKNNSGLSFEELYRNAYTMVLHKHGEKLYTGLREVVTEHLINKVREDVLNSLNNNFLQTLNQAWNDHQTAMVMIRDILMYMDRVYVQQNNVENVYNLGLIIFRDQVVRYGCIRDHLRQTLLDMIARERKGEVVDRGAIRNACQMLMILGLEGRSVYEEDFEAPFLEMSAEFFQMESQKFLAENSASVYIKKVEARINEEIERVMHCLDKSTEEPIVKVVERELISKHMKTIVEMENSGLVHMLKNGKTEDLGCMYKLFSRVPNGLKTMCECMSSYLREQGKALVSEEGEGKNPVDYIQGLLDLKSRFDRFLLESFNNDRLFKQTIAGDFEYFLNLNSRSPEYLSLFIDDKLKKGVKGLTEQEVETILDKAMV

B1: Keap1(N), recombinant N-terminal portion of human Keap1 spanning the BTB and BACK domains (domain or fragment)
chain: MQPDPRPSGAGACCRFLPLQSQCPEGAGDAVMYASTECKAEVTPSQHGNRTFSYTLEDHTKQAFGIMNELRLSQQLCDVTLQVKYQDAPAAQFMAHKVVLASSSPVFKAMFTNGLREQGMEVVSIEGIHPKVMERLIEFAYTASISMGEKCVLHVMNGAVMYQIDSVVRACSDFLVQQLDPSNAIGIANFAEQIGCVELHQRAREYIYMHFGEVAKQEEFFNLSHCQLVTLISRDDLNVRCESEVFHACINWVKYDCEQRRFYVQALLRAVRCHSLTPNFLQMQLQKCEILQSDSRCKDYLVKIFEELT
In the case of B1, the dissociation constant (Kd) worked out at 0.562 µM.

B2: KLHL3(N), recombinant N-terminal portion of human KLHL3 spanning the BTB and BACK domains (domain or fragment)
chain: MEGESVKLSSQTLIQAGDDEKNQRTITVNPAHMGKAFKVMNELRSKQLLCDVMIVAEDVEIEAHRVVLAACSPYFCAMFTGDMSESKAKKIEIKDVDGQTLSKLIDYIYTAEIEVTEENVQVLLPAASLLQLMDVRQNCCDFLQSQLHPTNCLGIRAFADVHTCTDLLQQANAYAEQHFPEVMLGEEFLSLSLDQVCSLISSDKLTVSSEEKVFEAVISWINYEKETRLEHMAKLMEHVRLPLLPRDYLVQTVEEEALIKNNNTCKDFLIEAMKYHLLP
Take B2: the Kd was 0.0138 µM.
